Results on three molecules are retold here after PMC7819943, “Rice protein-binding microarrays: a tool to detect cis-acting elements near promoter regions in rice”.

For series [1], the target named is T1, OsSMF1 (Oryza sativa, UniProt Q6ZLB0 1-436).
T1 sequence: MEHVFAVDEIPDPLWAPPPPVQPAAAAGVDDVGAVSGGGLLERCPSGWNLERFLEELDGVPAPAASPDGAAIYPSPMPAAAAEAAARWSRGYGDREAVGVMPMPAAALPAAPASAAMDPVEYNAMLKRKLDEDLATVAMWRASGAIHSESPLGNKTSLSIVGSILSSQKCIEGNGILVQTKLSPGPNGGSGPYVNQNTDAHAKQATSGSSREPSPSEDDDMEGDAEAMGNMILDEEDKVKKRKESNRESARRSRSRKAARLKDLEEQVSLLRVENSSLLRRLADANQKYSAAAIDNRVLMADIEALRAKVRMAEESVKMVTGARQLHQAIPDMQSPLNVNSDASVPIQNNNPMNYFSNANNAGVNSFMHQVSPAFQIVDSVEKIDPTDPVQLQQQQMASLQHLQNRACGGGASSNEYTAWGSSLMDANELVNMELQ
Description: EMSA; EMSA: 5 ug protein, 40 fmol FAM-dsDNA, 1 ug poly(dI-dC), 1X binding buffer (Pierce), 2.5% glycerol, 0.05% NP-40, 20 ul, 1 h room temperature; 6% acrylamide gel. The following applies: protein: recombinant; tags: N-terminal polyhistidine and DsRed monomer fusion (pET32a); chain copies: 2; label: 5' FAM; blunt.

Series [2] deals with OsWRKY34 (Oryza sativa, UniProt Q0JBA9 1-250). The series is described as above. The following applies: protein: recombinant; tags: N-terminal polyhistidine and DsRed monomer fusion (pET32a); label: 5' FAM; blunt.
Sequence of OsWRKY34 (Q0JBA9 entry or part of it): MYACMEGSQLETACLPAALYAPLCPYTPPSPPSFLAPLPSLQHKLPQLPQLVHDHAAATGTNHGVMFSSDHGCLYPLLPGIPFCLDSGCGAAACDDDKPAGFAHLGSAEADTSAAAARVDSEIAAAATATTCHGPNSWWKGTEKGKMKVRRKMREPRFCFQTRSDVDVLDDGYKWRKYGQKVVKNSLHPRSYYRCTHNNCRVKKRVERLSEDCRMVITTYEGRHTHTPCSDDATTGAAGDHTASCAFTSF

B1: Os01g0393100_8 (ONAC026 promoter probe) (dsDNA)
DNA 1: CTGGAATCTGAGGGGAACCACGTCACGTACACAAGTATAT
DNA 2: ATATACTTGTGTACGTGACGTGGTTCCCCTCAGATTCCAG
Consider B1, for which the binding result in series [1] is “binds”.

B2: Os05g0415400_39 (ONAC024 promoter probe) (dsDNA)
DNA 1: GATAATGAGTCAGTCCTCTTGTCGATACTCCGCCGGTATG
DNA 2: CATACCGGCGGAGTATCGACAAGAGGACTGACTCATTATC
In the case of B2, in series [1], the binding result is “binds”.

B3: Os01g0311500_18 (dsDNA)
DNA 1: TTGACGCCGTTGACTTTTTAGTACATGTTTGACCATTCGT
DNA 2: ACGAATGGTCAAACATGTACTAAAAAGTCAACGGCGTCAA
For B3, the binding result in series [2] is reported as “binds”.
